Here are results for 41 sequences from the nanobody polyreactivity screen of Harvey et al. (2022).

This data set in a line: yeast display, Sf9 membrane polyspecificity reagent, FACS + sequencing; frameworks hold sequencing errors. The gist of the method: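 A synthetic nanobody library was expressed on Saccharomyces cerevisiae BJ5465 by galactose induction for 36–48 hours. The library was stained for 1 hour at 4 °C with 10% biotinylated, detergent-solubilized Sf9 membrane reagent and enriched with streptavidin microbeads before FACS. Low and high (top ~1%) gates were set on anti-HA fluorescence for expression and streptavidin fluorescence for reagent binding, and each polyreactivity label reflects the gate of origin.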
Regarding “PVQLVETGGGLVQAGGSLRLSCAASGGIFTLYVLGWYRQPPGKERELVAAISRTGGSTYYADSVKARFTISRDNAKNTVYLQMNSLKPEDTAVYYCAADYRQPSAFYYWGQGTQVTVSS”, the “polyreactivity (PSR sort gate)” value is “high polyreactivity”.
To “PVQVVESGGVLVQAGGSRRLSCAAAGGNFYGNVMGWYRQAPGKERELVADITSVSSTYYADSVKGRFTISRDNAKNTVFLQMKRLKPEDTAVYYCAPEPDHVADSHSGYDYWGQGTQVTVSS” belongs “low polyreactivity”; to “QAQLHESAGGLVQAGGCLRLSCAASGYFSKKWGMGWYRKAPGKERELVATIAKGASTYYADSMKGRFTISRDNAKYTMYRQMNSLKPEDTAVYYCGATQQDDQGLGYWGQDTQVTVSS”, “high polyreactivity”; to “QAQLQEIGGSLVQAGGGLRLSCEASGYISVGSVMGWYRQAPSKERELVASIDQGANTNYADSVKGRFTISRDNEKNNVYLQMKSLKPEDTAVYYCATETTYILNDWGQGTQVTVSS”, “low polyreactivity”.
Then “QAQLQESGGSLVQAGGGLRLSCAASGYISVGSVMGWYRQAPSKERELVASIDQGANTNYADSVKGRFTISRDNAKNNVYLQMNSLKPEDSAVYYCATETTYILNYWGQGTQVTVSS”, with “low polyreactivity”; and “QAQLQESGGSLVQAGGGMRLSCAASGYISVGSVMGWYRQAPSKERELVASIDQGANTNYADSVKGRFTISRDNAKNNVYLQMNSLKPEDTAVYYCATETTYILNYWGQGTQVTVSS”, with “low polyreactivity”.
Then “QAQLVESGGGLVQAGGRLRLICAASGSIFAGYAMGWSRQAPGKERELVATITSSSRTNYADSVKGRFSISRDNAKNNVYLQMNILKPEETAVSYCAARGRSVIDVYRMYYWGQGTKVTVSS”, with “high polyreactivity”; and “QAQLVESGGGLVQAGGSLRLSCAASGSTSLDNAMGWYRQAPGKERELVAAIRWRGSITFYADSVKGRFTISRDNAKNTVYLQMNSLKPEDTAVYYCAVTLRYTRSGAYDYWGQGTQVTVSS”, with “low polyreactivity”; and “QAQLVESGGGLVQEGGSLRLSCAASGSIFYGYAMGWSRQAPGKERELVATIRFITGSTYYADSVKGRFTISRDNAKNTVYLQMNSLKPEDTAVYYCAAVYVGYYDNYDYWGQGTQVTVSS”, with “low polyreactivity”.
With “QDHHVESGGGLVQAGGSLRLICAASGSTFSWNTMGWYRPAPGKERDLVAAISWSTGRTYYADSVKGRFTISRDNAKNTVYLQMISLKPEDTAVYYCAARRFVTDGTRREYDYWGQGTQVTVSS”, the “polyreactivity (PSR sort gate)” value was “high polyreactivity”.
Consider “QDHHVESGGGLVQARGTLRLSCAASGIIYSYYAMGWFRQAPGKEWELVAAITASGGSTYYADSVKGRFTISRDNAKNTVYLQMNSLKPQDTGVSYCAAGSFFLHLIGYSTVSYGRNYWGQGTQVTVAS”, for which the “polyreactivity (PSR sort gate)” value is listed as “high polyreactivity”.
For “QDHLVESGGGLVQAGGSLRLSCAASGITFVYYYMGWYRTAPGKERELVAAISSDGSTYYADSVKGRFTISRDNAKNTVYLQMNSLKPEDTAVYYCNAVAIVPYFYVVYDIFDYWGQVTQVTVSS”, the “polyreactivity (PSR sort gate)” value is listed as “low polyreactivity”.
On to “QDHLVESGGGLVQAGGSLRLSCAASGSIFGLNVMGWYRHAPGKERELVASITSGRSTNYADSVKVRFTISRDNAKNTVYLQMNSLKPVVTAVYYCYATRVRGWYVTRYYYWGQGTQVTVSA”, for which the “polyreactivity (PSR sort gate)” value was “high polyreactivity”.
Then “QDHLVESGGGLVQAGGSLRLSCAASGSIFRRNAMGWYRQAPGKERELVAAIRYSGDRTYYADSVKGRFTISRDNAKNTVYLQMNSLKPEDTAVYYCAAKRSVSYYGYYYWGQGSQVTVSS”, with “high polyreactivity”.
Then “QDHLVESWGGLIQAGCSLRISCAASGSITVYNAMGWYRQAPWKERELLAAITGGVTTNYADSVKGRFTISRDNAKTTFYLLMNSLKPEDTAVYYCAKSQIPFGLDSPVDYWGQGTQVNVSS”, with “low polyreactivity”.
To “QDKLVDSGGGLVQAGGSLLLSCAASGFIFLNNAMGWYRQAPGKQRELVAAITWSGGSTYYADSVKGRFTISRDNAKNTVYLQMNSLKPVDTAVYYCAADGWLYYGVGFYSSRRDYYWGQGTQVTVSS” belongs “low polyreactivity”; to “QDPLVESGGGLVQAGGSLRLSCAASGRLFYRNPMGWYRQAPGKERELVAAISSSGGGTYADSVKGRFTISRDNAKNTVYLQMNSLKPEDTAVYYCAAGPFSYSHYGRKFYYWGQGTQVTVSS”, “high polyreactivity”.
For “QDPLVESGGLLVQAGGSLRLSCAASGFTFSRYAMGWYRQAPGKERELVAVIDNSGGTTYYADSVKGRFTISRDNAKNTVYLQMNSLKPEDTAVYYCAAKRIPRYYSASDYWGQGTQVTVSS”, the “polyreactivity (PSR sort gate)” value is reported as “low polyreactivity”.
Take “QDQDVESGGGLVQARGSLPLSCAASGSIFAWYAMGWYRQSPGKERELLAVITSSDGSTHYADSVKGRFTISRDNAKNSVYLQMISLKPEDTAVYYCAAFRSLRESKGYWWEYYSWGQGTQVTVSS”: the “polyreactivity (PSR sort gate)” value was “low polyreactivity”.
On to “QDQHVDSGGGLVQAGGSLRLRCAASGFTIADYAMGWYRQAPGKERELVAAINRSGGRTYYADSVKGRFTISRDYAKNTVYLQMNMLKPEDTAVYYCAAYGITYHNSDSWGQGTQVTVSS”, for which the “polyreactivity (PSR sort gate)” value is “high polyreactivity”.
“QDQHVESGGCLVQEGGSLRLSCAASGRTFSSNVMGWYRQAPGKVRELVASITWSGGTTYYADSVKGRFTISRDNAKNTVYLQMNSLKPEDTAVYYCNAADERSQGWVGYDHWGQCTQVTVSS”: the “polyreactivity (PSR sort gate)” value is on record as “low polyreactivity”.
In the case of “QDQHVESGGGLVQAGGRLSLICAASAFISVRNAMGWYRQAPGKERELVAAISSGDTTDYADSLKGRFTISRDNAKNTVYLLMNSLKPEDTAVYYCAAVYSGRYYYWGQGTQVTVSS”, the “polyreactivity (PSR sort gate)” value is on record as “low polyreactivity”.
In the case of “QDQHVESGGGLVQAGGSLRLICAASGINFDYYNMGWYRQAPGKERELVATISSGGTSTFYADSVKGRFTISRDNAKNTVYLQMNSLKPDDSAVYYCAKDRPGWVHRRPSGGFDYWGQGTQVTVSS”, the “polyreactivity (PSR sort gate)” value is given as “low polyreactivity”.
Then “QDQHVESGGGLVQAGGSLRLICAASGLIFGYYAIGWYRLAPGKERELVAAITSDSSTNYADSVKGRFTISRDNAKNTVYLHMNSLKPVDTAVYYCAADIMTRRGYYYWGHGTQVTVSS”, with “high polyreactivity”.
To “QDQHVESGGGLVQAGGSLRLICDASGGIFGTNDMGWYRQAPGKERELVAAITSDSGATYYADSVKGRFTISRDNAKNTVYLQMNSLKPEDTAVYYCAAEDGPWFYRYGYWGQGTQVTVSS” belongs “low polyreactivity”.
Then “QDQHVESGGGLVQAGGSLRLSCAASGFTFDFYAMGWYRQAPGKERELVAAISKNDGTTYYADSVKGRFTISRDNAKNTVYLQMNSLKPEDTGVYYCAAESGYPVYTYVSSGDYWGQGTQVTVSS”, with “low polyreactivity”.
Turning to “QDQHVESGGGLVQAGGSLRLSCAASGGNYAGYAMGWYRQAAGKARELVAAISWRGTSTYYADSVKGRFTISRDNAKNTVYLELNSLKPEDTAVYYCAAEAASWWGYGYWGQGTQVTVSS”, the “polyreactivity (PSR sort gate)” value is “high polyreactivity”.
In the case of “QDQHVESGGGLVQAGGSLRLSCAASGILYNYYAMGWYRQAHGKERELVAAISASGGSTYYADSVKGRFTISRDNAKNTVYLQMYSLKPEDTAVYYCNAAVLYRQYGRGDYLGQGTQVTVSS”, the “polyreactivity (PSR sort gate)” value was “low polyreactivity”.
To “QDQHVESGGGLVQAGGSLRLSCAASGRISKRNVMGWYRPAPGKERELVACISSTGSTSYADSVKGRFTISRDNAKYTVYLQMNSLNPEDTAVYYCAARGQATYNWGQGTQVTVSS” belongs “high polyreactivity”; to “QDQHVESGGGLVQAGGSLRLSCAASGRTFRLYAMGWYRQAPGKERELVAAITRGGRTNYADSVKGRFTISRDNAKNTVYLQMNSLKPEDTAVYYCAARYVERHTDYYYWGQGTQVTVSS”, “low polyreactivity”; to “QDQHVESGGGLVQAGGSLRLSCAASGRTFSYYTMGWYRQAPGKERELVAAISRRGGNTYYADSVKGRFTISRDNAKNTVYLQMNSLKPADTAVYYCAALSYAKHYDPSGYDYWGQGTQVTVSS”, “high polyreactivity”.
For “QDQHVESGGGLVQAGGSLRLSCAASGSIFWYYAMGWYRQEPGKERELVAAISRSGGSTYYADSVKGRFTISRDNAKNTVYLEMNSLKPEDTAVYYCAAGYSSLRRFGVYYWGQGTQVTVSS”, the “polyreactivity (PSR sort gate)” value is “high polyreactivity”.
To “QDQHVESGGGLVQAGGSLRLSCAASGSTFHLYAMGWYRQAPGKERELVATITWRTGSTYYADSVKGRFTISRDNAKNTVYLQMNSLKPEDTAVYYCAAYPYRYSWLDYWGQGTQVTVSS” belongs “high polyreactivity”.
To “QDQHVESGGGLVQAGGSLRLSCAASGSTFRYYAMGWYRQRPGKESEMVAAITRRGGSTYYADSVKGRFTISRDNAKYTVYLQMNSLKQADTAVYYCAAYRIYYSGYGYYYYWGQGTQVTVSS” belongs “high polyreactivity”; to “QDQHVESGGGLVQAGGSLRLSCAASGSTFVYYAMGWYRQAPGKERELVAVITWSGGRTYYADSVKGRFTISRDNAKNTVYLQMNSLKPEDTAGYYCAADPLSGYDYWGQGTQVTVSS”, “low polyreactivity”; to “QDQHVESGGGLVQEGGSLRLSCAASGSTFWPYAMGWSRQAPGKERELVARINSGGNTNYADSVKGLFTISRDNAKNTVYLQMNSLKPEDTAVYYCAVRSLYEPRVYYRCVVGDGNYWGQGTQVTVSS”, “low polyreactivity”.
Then “QDQHVESGGGLVQEGGSLRLSCASSSSTFEYYAMGWYRQPPGKERELVATISIDGRTNYADSVKGRFTISRDNAKNTVYLQMNSLKPEDTAVYYCAARPYWRHRYDYWVQGTQVTVSS”, with “low polyreactivity”.
On to “QDQHVESGGGVVQARGSLRLICDASGFTIQRSAMGWYRQAPGKERELVAAISSGGSTYYADSVKGRFTFSRDNAKNTVYLQMNSLKPEDTAVYYCAARPIPRYYGKFWRVDYWGQGTQVTVSS”, for which the “polyreactivity (PSR sort gate)” value is on record as “high polyreactivity”.
For “QDQHVESGRGLVQAGGSLRLSCAASGLIFPRNAMGWYRQAPGKERELVAVISRSGTSTYYADSVKGRFTISRDNAKNTVYLQMNSLKPEDTAVYYCAAYSRRGSSLRGRYGYWGQGTQVTVSS”, the “polyreactivity (PSR sort gate)” value is on record as “high polyreactivity”.
In the case of “QDQHVESGVGLVQEGGSLPLSCASSAFIIVKYAMGWYRKAPGKERELVAAITSGGSTSYADSVKGRFTISRDNAKNTVYLQMNRLKPEDTAVYYCAASTTAYAYVNYGYWGQGTQVTVSS”, the “polyreactivity (PSR sort gate)” value is listed as “low polyreactivity”.
Then “QDQHVETGGRLVHAGCSLRISCAASGSTFTGYAMGWNRPPPGKERELVAAISSGGSTYYADSVKGRFTISRDNPKNTVYLQMNSLTPEDTAVYDCAAAPRWKASRLYYWGQCTQVTVSS”, with “high polyreactivity”.
